The source of these data is paper PMC7616425 (2024).

The target in assay [1] is Alexa647-labeled RhoGDI1 L56V (bovine, UniProt P19803 1-204, L56V, Alexa647 acceptor (site not stated)). The assay is described as follows: FRET.
The target of assay [2] is Alexa647-labeled RhoGDI1 L56A (bovine, UniProt P19803 1-204, L56A, Alexa647 acceptor (site not stated)). The assay is described as follows: FRET.

B1: Cy3-labeled, prenylated Cdc42 (natural protein)
chain: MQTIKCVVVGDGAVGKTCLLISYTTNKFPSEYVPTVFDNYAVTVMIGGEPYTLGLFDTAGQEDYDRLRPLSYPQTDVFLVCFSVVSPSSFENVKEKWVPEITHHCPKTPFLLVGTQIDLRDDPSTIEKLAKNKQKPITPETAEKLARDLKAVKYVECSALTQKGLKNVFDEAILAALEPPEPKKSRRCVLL
modifications: prenylated (residue not stated); Cy3 donor (site not stated)
A word on the koff: it is the rate constant with which the complex falls apart. Higher therefore signals fast dissociation. For B1, the koff in assay [1] amounted to 0.003 s⁻¹; in assay [2], 0.08 s⁻¹.
